Molecular target: cellular receptor used by the virus to infect target cells (ARPE 19 epithelial cells)
Experiment: cell-based or functional assay

soluble HCMV pentameric complex (gH, gL, pUL128, pUL130, pUL131), purified, tag-free, produced in CHO-K1SV cells (from UniProt P12824 26-713; Q68672 32-278; P16837 23-171; F5HCP3 28-213; F5HET4 19-129)
IC50, inhibition of HCMV infection of ARPE 19 epithelial cells (complex pre-incubated with the target cells): 1.9 nM
